This note sets out measurements from US20190071714, “[…] FOR CLOSTRIDIUM […] DETECTION” (McMaster University, published 2019).

In data set [1] the target is T1, rGDH (recombinant glutamate dehydrogenase) (Clostridium difficile, UniProt P27346 SEQ:1-421).
T1 sequence: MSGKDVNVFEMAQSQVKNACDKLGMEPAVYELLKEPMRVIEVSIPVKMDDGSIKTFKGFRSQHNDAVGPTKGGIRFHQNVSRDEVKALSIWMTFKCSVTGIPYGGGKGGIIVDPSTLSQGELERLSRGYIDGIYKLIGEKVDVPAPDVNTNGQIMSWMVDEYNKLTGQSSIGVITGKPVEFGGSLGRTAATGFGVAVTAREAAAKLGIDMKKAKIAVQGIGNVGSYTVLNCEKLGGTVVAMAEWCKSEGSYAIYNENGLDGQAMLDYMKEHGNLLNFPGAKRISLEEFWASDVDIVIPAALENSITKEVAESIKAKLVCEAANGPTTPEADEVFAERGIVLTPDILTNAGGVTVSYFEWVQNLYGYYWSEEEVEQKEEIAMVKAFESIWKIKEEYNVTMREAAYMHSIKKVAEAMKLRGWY
The experiment in a line: pulldown; […]; 1x PBS, 150 mM NaCl, 0.02% Tween-20, pH 7.6, room temperature. To be noted: tags: C-terminal His6; expressed in E. coli; Pro-Lab Diagnostics.

Data set [2] addresses T1, rGDH (recombinant glutamate …). The experiment in a line: pulldown; […]; PBS pH 7.6, room temperature. Particulars: tags: C-terminal His6; expressed in E. coli; Pro-Lab Diagnostics.
The target is the same in data set [3]. The experiment in a line: pulldown; 20 nM DNA, rGDH beads. Particulars: tags: C-terminal His6; expressed in E. coli; Pro-Lab Diagnostics.
Data set [4] concerns the target T2, thrombin (Homo sapiens, UniProt P00734;P00734 P00734:328-363,P00734:364-622). The experiment in a line: EMSA.
The target in data set [5] is T3, BSA (UniProt P02769 P02769:25-607). The experiment in a line: EMSA; 10 nM protein. Particulars: tags: Sigma. As to the method: The truncated aptamer, anti-GDH-T1, was then radioactively labeled at the 5′ end and tested for binding to the rGDH target by EMSA assays.^{39,40} A typical image of an EMSA result is shown in FIG. 3A. It was observed that the electrophoretic mobility of the protein-aptamer complex was typically less than that of the free aptamer. The fractional saturation of bound aptamer was calculated as a function of rGDH concentration (FIG. 3B). […] The specificity was also tested by EMSA. No obvious band was observed when using proteins such as BSA, thrombin and IgG (FIG. 8).
T3 sequence (P02769 25-607, one chain of several): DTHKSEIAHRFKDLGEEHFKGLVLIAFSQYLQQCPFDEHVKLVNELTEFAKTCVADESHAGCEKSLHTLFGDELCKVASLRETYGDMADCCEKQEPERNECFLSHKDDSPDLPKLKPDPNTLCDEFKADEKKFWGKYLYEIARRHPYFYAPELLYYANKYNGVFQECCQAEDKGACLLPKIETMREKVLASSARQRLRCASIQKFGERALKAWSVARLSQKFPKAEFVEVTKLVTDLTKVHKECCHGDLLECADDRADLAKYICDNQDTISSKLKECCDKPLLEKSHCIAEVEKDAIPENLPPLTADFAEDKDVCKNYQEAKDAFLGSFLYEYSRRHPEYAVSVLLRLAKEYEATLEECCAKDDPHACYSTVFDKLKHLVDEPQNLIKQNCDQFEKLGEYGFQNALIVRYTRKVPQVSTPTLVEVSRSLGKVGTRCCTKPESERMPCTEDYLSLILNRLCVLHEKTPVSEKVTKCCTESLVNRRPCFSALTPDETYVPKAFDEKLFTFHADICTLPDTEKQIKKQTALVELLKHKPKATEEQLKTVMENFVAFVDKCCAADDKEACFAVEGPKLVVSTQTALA
Binding reactions were performed in 20 μL of 1× binding buffer containing 3 nM 32P-labeled anti-GDH1-T1 aptamer and various concentrations of rGDH (0 to 1000 nM). After incubation for 30 min, the reaction mixtures were spiked with 6× loading buffer, and then loaded into the wells of a nondenaturing polyacrylamide gel (8%) at 4° C. Visualization of DNA bands was done using a Typhoon 9200 imager and the resulting bands were quantified with ImageQuant software.

In data set [6] the target is T1, rGDH (recombinant glutamate …). The experiment in a line: EMSA; […]; 1x PBS, 150 mM NaCl, 0.02% Tween-20, pH 7.6; […]. Particulars: tags: C-terminal His6; expressed in E. coli; Pro-Lab Diagnostics.
In data set [7] the target is T2, thrombin.
The target of data set [8] is TcdB (toxin B) (Clostridium difficile, UniProt P18177 SEQ:2-2366).
Sequence of TcdB (toxin B) (P18177 2-2366): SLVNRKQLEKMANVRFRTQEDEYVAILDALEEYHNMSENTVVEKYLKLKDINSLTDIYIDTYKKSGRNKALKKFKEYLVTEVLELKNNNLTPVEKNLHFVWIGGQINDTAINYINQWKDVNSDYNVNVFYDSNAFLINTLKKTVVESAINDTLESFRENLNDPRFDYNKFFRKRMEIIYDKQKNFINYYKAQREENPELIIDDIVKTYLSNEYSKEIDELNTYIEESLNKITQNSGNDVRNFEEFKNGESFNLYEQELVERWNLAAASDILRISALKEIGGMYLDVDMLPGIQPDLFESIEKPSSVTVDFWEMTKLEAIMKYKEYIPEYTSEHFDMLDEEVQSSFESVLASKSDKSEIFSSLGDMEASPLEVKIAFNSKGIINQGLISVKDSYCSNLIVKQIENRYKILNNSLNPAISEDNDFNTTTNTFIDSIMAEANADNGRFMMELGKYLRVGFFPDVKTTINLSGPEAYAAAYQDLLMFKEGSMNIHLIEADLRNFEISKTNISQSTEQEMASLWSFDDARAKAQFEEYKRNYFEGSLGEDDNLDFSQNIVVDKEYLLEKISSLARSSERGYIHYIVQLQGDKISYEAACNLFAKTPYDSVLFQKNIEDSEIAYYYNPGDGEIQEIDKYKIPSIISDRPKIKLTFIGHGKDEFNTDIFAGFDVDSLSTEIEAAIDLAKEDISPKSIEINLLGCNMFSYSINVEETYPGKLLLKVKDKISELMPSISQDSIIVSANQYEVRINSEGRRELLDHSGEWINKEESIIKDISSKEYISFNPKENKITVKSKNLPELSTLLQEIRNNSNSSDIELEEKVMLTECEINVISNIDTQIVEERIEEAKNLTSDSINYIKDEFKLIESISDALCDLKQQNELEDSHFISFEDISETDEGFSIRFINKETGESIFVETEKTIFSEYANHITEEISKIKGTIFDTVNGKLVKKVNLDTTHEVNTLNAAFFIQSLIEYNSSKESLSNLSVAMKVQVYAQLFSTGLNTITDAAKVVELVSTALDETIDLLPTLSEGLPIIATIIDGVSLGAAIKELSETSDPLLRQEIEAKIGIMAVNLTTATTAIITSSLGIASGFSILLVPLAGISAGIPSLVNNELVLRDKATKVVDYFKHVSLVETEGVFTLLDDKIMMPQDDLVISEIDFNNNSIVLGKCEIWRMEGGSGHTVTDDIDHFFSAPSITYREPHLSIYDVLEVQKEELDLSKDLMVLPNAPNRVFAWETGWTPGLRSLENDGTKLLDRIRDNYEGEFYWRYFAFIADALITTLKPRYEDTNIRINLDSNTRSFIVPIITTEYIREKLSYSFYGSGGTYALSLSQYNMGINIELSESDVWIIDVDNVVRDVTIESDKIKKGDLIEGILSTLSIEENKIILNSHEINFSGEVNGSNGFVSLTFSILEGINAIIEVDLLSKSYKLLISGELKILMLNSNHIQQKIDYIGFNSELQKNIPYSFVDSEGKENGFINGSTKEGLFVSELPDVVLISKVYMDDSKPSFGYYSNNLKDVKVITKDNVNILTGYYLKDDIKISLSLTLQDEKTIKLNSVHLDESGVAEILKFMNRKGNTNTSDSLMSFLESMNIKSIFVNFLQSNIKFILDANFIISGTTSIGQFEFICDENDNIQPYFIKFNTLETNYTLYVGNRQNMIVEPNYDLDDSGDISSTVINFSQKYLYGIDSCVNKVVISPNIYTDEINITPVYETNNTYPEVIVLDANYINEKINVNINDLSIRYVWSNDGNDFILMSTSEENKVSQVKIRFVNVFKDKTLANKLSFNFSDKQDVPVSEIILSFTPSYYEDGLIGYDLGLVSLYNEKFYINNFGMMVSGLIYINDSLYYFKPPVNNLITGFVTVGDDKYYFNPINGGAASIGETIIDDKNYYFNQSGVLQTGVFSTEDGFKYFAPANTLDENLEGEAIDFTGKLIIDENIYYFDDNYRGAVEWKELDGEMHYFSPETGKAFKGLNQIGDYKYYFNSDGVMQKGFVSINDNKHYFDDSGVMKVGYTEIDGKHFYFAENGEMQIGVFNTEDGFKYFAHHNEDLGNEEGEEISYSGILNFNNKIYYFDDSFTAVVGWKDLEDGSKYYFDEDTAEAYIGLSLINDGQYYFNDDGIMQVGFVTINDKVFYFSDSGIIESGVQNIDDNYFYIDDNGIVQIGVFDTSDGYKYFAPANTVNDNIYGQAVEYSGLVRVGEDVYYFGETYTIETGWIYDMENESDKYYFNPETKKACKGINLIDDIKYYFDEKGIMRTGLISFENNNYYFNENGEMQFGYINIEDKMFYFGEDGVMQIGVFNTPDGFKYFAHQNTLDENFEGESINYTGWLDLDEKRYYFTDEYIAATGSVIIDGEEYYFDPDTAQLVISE
Data set [9] concerns the target TcdA (toxin A) (Clostridium difficile, UniProt P16154 SEQ:1-2710).
For data set [10], the target named is T3, BSA. The experiment in a line: RGO fluorescence sensor, 300 nM protein, no significant response. Particulars: tags: Sigma. As to the method:
The detection limit (defined as 3σ/slope, with a being the standard deviation of the blank samples) of the sensor was determined to be 1 nM (FIG. 5A). The selectivity of the aptamer-graphene biosensing system was also evaluated by using non-target proteins (BSA, thrombin, IgG, TcdA and TcdB).
In a typical assay, 20 μL of 5× binding buffer (5×PBS, containing 750 mM NaCl and 0.1% Tween-20, pH 7.6), 2 μL of FAM-labeled (5′ end) aptamer probe (7 μM), 30 μL of RGO solution (100 μg/mL) and 48 μL of water were first mixed and incubated in a micro-centrifuge tube for 30 min. Then, 10 μL of 1% BSA was added to block the surface. After incubating for 20 min, 5 μL of nGDH with different dilutions was added to the mixture and time-dependent fluorescence emission measurements were performed at λₑₓ/λₑₘ=494/518 nm. The emission intensity obtained at a reaction time of 60 min was plotted against nGDH concentration to obtain a limit of detection. A similar experiment was carried out using non-target proteins (BSA, human thrombin, human IgG, TcdA and TcdB from C. difficile) to evaluate aptamer selectivity.

The target of data set [11] is T1, rGDH (recombinant glutamate …). The experiment in a line: pulldown. To be noted: tags: C-terminal His6; expressed in E. coli; Pro-Lab Diagnostics.
For data set [12] the target is unchanged. The experiment in a line: pulldown; 20 nM DNA, rGDH beads; decreased. To be noted: tags: C-terminal His6; expressed in E. coli; Pro-Lab Diagnostics.

Like-named read-outs stand apart in the source and are kept apart here.

B1: anti-G1 (anti-GDH1) (ssDNA)
DNA: CAGGTCCATCGAGTGGTAGGAGGAGGTATTTAGTGCCAAGCCATCTCAAACGACGTCTGAGTCGCACTGCTCCTGAACGTAC
Regarding B1, in data set [1], the Kd was determined as 3.1 nM.

B2: anti-G3 (anti-GDH3) (ssDNA)
DNA: CAGGTCCATCGAGTGGTAGGATGCAGCGGACAGTGTGGGACCATCGCTGCGGATGTATGAATCGCACTGCTCCTGAACGTAC
With B2, the Kd in data set [2] was determined as 5.6 nM.
For AGCCATCTCAAACGACGTCTGAGTCGCA (ssDNA) [anti-G1-T6], the binding result in [3] is reported as “no binding”.

B3: anti-G1-T1 (ssDNA)
DNA: TAGGAGGAGGTATTTAGTGCCAAGCCATCTCAAACGACGTCTGAGTCGCACTGCTCCTG
B3: the binding result in data set [4] and in data set [5] was “no binding” throughout. The Kd in data set [6] came to 4.5 nM.

B4: FAM-anti-GDH1-T1 (ssDNA)
DNA: TAGGAGGAGGTATTTAGTGCCAAGCCATCTCAAACGACGTCTGAGTCGCACTGCTCCTG
Regarding B4, the binding result in data set [7], in data set [8], in data set [9] and in data set [10] was “no binding” in each case.
For AGGTATTTAGTGCCAAGCCATCTCAAACGACGTCTGAGTCGCACTGCT (ssDNA) [anti-G1-T4], the binding result in [11] was “binds”.

B5: anti-G1-T3 (ssDNA)
DNA: AGGTATTTAGTGCCAAGCCATCTCAAACGACGTCTGAGTCGCACTGCTCCTG
For the molecule B5, the binding result in [12] was “binds”.

B6: anti-G7 (anti-GDH7) (ssDNA)
DNA: CAGGTCCATCGAGTGGTAGGACCCAACCCACGATGCGCAAGAGGAATGCAGCCTACCAGCATCGCACTGCTCCTGAACGTAC
Consider B6, for which the Kd in [2] is 4.6 nM.
With TAGTGCCAAGCCATCTCAAACGACGTCTGAGTCGCACTG (ssDNA) [anti-G1-T7], the binding result in data set [3] is listed as “no binding”.
On the same count and under the same terms, the same measure for AGGTATTTAGTGCCAAGCCATCGTCGCACTGCTCCTG (ssDNA) [anti-G1-T8]: “no binding”.

The Kd is the constant that tells how readily two partners part at equilibrium.
